Ends that are not written are not given here.
Target: T1, rabbit calcitonin receptor (rabbit, UniProt P79222 23-474)
T1 sequence (looked up): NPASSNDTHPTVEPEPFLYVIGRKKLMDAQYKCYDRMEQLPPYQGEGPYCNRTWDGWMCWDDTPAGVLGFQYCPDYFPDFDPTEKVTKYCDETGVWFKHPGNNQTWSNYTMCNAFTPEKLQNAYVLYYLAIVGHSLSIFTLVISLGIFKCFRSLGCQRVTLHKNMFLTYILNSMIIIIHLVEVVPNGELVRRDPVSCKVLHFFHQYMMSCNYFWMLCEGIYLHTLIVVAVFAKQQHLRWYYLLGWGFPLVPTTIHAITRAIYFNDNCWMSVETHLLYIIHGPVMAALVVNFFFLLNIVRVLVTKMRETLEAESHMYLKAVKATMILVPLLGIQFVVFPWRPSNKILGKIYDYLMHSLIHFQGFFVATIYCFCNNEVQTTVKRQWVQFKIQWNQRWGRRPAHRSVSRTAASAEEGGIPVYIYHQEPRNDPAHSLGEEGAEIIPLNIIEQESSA
Assay: radioligand binding

- Ki: 0.61 nM
Binder: CGNLSTCMLGTYTQDFNKFHTFPQTAIGVGAP (ligand, UniProt P01258 85-116, looked up, ends and bridges not checked; cysteine pairing not given here) [human calcitonin]
